Patent publication US20240043489A1, “Cytokine Prodrugs Comprising a Cleavable Linker” (Trutino Biosciences Inc., priority 2020, published 2024)
“Also recorded” adds a separate entry of the source.

How the values were obtained:
[1] = tested on: heparin; assay: IL-2 fusion protein plate binding assay to Heparin-BSA conjugate
Procedure: 96-well plates were coated with 25 ug/mL of Heparin-BSA conjugate (provided by Dr. Mueller, Boerhinger Ingelheim) or control BSA for 18-22 h at room temperature on shaker (350 rpm). After washing, wells are blocked with PBS-0.05% Tween 20/1% BSA for 90 min, then fusion proteins are titrated in 1% BSA/PBS-0.05% Tween 20 pH 7.5 and/or pH 6 and added for 2 hr at room temperature with shaking. After washing, an anti-mouse IL-2 biotin-labelled detection antibody (JES6-5H4, ThermoFisher) is added and binding is detected using Ultra Strepavidin HIRP (ThermoFisher). The plate was developed by adding the chromogenic tetramethylbenzidine substrate (Ultra TMB, ThermoFisher). The reaction is stopped by addition of 0.5M H2SO4 and the absorbance is read at 450-650 nm.

[2] = tested on: CTLL-2 cells; assay: CTLL-2 proliferation assay (MTT); assay type: cell-based
Procedure: (§1) Recombinant MMP9 and/or MMP2 (R&D Systems) was first activated with p-aminophenylmercuric acetate and this activated protease or equivalent amount of activating solution without the protease was used to digest or mock digest the fusion protein for 1 hr, 2 hr, 4 hr and overnight (18-22 hr) at 37 C. Cleavage assays are set up in TCNB buffer: 50 mM Tris, 10 mM CaCl2), 150 mM NaCl, 0.05% Brij-35 (w/v), pH 7.5. Digested protein was aliquoted and stored at −80° C. prior to testing. Aliquots of digests were subsequently analyzed by SDS-PAGE followed by Western blotting to evaluate the extent of cleavage. Digests were also assessed in functional assays such as CTLL-2 proliferation and HEK-Blue Interleukin reporter assays. As shown in FIGS. 2A-E, essentially complete cleavage by MMP9 protease of the fusion proteins with functional site is seen after overnight incubation. In contrast, proteins containing a scrambled MMP cleavage site are not cut (FIG. 2E).
IL-2 activity was measured using either CTLL-2 cells (ATCC) or the reporter cell line HEK Blue IL2 (Invivogen, San Diego). In brief, for the CTLL-2 assay a titration of untreated and digested samples is added to 40 000 CTLL-2 cells per well in 100 ul medium in a 96-well plate and incubated at 37C in 5% CO2 for 18-22 hr. At the end of this period, 50ug/well Thiazolyl Blue Tetrazolium Bromide (MTT) (Sigma-Aldrich) was added and the plate was incubated for 5 hr at 37C in 5% CO2. Cells were lysed with 100 µl/well 10% SDS (Sigma) acidified with HCl, incubated at 37C for 4 hr, and absorbance was read at 570 nm. Recombinant human or mouse IL-2 (Peprotech and R&D systems respectively) was used as a positive control. FIGS. 3A-B, 3K-L and 3N-P show examples of untreated and digested fusion proteins evaluated in CTLL-2 proliferation assay.

[3] = biological target: T1, MMP9 (Mus musculus, UniProt P41245); assay: Cleavage of fusion protein by MMP9 protease (SDS-PAGE / Western blot); assay type: biochemical
T1 construct: purchased R&D Systems
Procedure: as §1
Untreated and digested fusion proteins were evaluated for cleavage products by Western blot. The following monoclonal antibodies were used: rat anti-mouse IL-2 antibody (JES6-1A12; ThermoFisher), goat anti-mouse IL-2 polyclonal antibody (AF-402-NA; R&D systems), mouse anti-6xHis monoclonal antibody (MA1-21315, ThermoFisher), Anti-mIgG Fc HRP conjugated (ThermoFisher cat #A16084), and Anti-human IL2 antibody (Invitrogen, cat #MA5-17097, mouse IgG1). Detection was performed using either a goat anti-rat HRP-conjugated antibody, Donkey Anti-goat HRP-conjugated antibody or Goat Anti-mouse HIRP conjugated (Jackson Immuno Research, West Grove, PA) and developed using the SuperSignal West Femto Maximum sensitivity detection reagent (ThermoFisher) following the manufacturer's recommendations.

[4] = tested on: B16F10; assay: In vivo efficacy in B16F10 melanoma model (Example 12)
Procedure: For the efficacy studies, C57BL/6 or BALB/c mice were subcutaneously inoculated with malignant cells and when the average tumor volume reached on average 90 mm^3, animals were randomized into 2 groups based on tumor volumes (n=10 mice per treatment group). Mice were dosed intravenously every 3 days (Q3D) at 20 mg/kg. Tumors, body weights and clinical observations were measured/collected twice a week for the duration of the study. Tumor volume is shown in FIGS. 10A-D, 11A, 12A, and 13B-C. […] Liver and kidney enzyme results corresponding to FIGS. 11A and 12A are shown in FIGS. 11B-D and 12B-D, respectively.

[5] = tested on: MC38 tumor; assay: Systemic IV injection in syngeneic MC38 colorectal cancer model; assay type: in vivo
Procedure: The objective of this study is to evaluate efficacy of Construct B in the MC38-bearing female C57BL/6 mice. For this study, C57BL/6 6-8 weeks old female mice (Jackson Labs) were subcutaneously inoculated with MC38 cells (10^6 cells/animal), and when the average tumor volume reached about 80 mm^3, animals were randomized into 2 groups based on tumor volumes (8 mice per treatment group). Animals were dosed according to the following study design:
Mice were dosed over a 21 day period then further observed for an additional week.

[6] = tested on: collagen; assay: IL-2 fusion protein collagen-agarose pulldown (immunoblot quantitation); assay type: binding
Procedure: To test binding to collagen, a pulldown assay using agarose cross-linked to collagen (Sigma) was performed. IL-2 fusion proteins were incubated with collagen-agarose or control agarose beads for 18-22 h at 4C with gentle rotation in 1% BSA/PBS-0.05% Tween 20. After washing, proteins bound to the beads were eluted by resuspending beads in SDS sample buffer (Life Technologies). Bound proteins were then separated by SDS-PAGE on 4-12% BisTris gradient gel followed by immunoblotting with goat anti-mouse IL-2 polyclonal antibody (AF-402-NA; R&D systems). Donkey Anti-goat RP-conjugated antibody was used for detection (Jackson Immuno Research, West Grove, PA) and the blot was developed using the SuperSignal West Femto Maximum sensitivity detection reagent (ThermoFisher) following the manufacturer's recommendations.

T1 sequence (P41245 108-730): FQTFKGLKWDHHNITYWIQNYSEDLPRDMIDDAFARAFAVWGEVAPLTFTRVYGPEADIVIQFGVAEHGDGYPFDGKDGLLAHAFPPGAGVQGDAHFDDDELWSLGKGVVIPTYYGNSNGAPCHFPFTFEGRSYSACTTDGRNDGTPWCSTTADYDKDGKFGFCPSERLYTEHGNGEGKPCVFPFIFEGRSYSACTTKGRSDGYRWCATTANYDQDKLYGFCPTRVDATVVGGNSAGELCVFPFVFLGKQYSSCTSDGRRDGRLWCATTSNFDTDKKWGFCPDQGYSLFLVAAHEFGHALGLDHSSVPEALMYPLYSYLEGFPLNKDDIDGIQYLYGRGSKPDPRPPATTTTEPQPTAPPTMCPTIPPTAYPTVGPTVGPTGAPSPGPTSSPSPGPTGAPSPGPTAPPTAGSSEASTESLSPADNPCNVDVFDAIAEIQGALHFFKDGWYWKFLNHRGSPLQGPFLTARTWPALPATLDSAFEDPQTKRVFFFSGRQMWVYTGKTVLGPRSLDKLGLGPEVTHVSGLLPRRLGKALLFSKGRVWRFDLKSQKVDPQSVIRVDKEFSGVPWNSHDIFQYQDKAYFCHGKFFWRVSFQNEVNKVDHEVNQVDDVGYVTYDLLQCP

B1: Construct B: SEQ ID NO 101: m IL2-2x(SG4)-MMPcs1-2x(G4S)-IL2Ralpha-mIgG1 Fc (protein)
chain: APTSSSTSSSTAEAQQQQQQQQQQQQHLEQLLMDLQELLSRMENYRNLKLPRMLTFKFYLPKQATELKDLQCLEDELGPLRHVLDLTQSKSFQLEDAENFISNIRVTVVKLKGSDNTFECQFDDESATVVDFLRRWIAFCQSIISTSPQSGGGGSGGGGGPLGVRGGGGGSGGGGSELCLYDPPEVPNATFKALSYKNGTILNCECKRGFRRLKELVYMRCLGNSWSSNCQCTSNSHDKSRKQVTAQLEHQKEQQTTTDMQKPTQSMHQENLTGHCREPPPWKHEDSKRIYHFVEGQSVHYECIPGYKALQRGPAISICKMKCGKTGWTQPQLTCVDEREHHRFLASEESQGSRNSSPESETSCPITTTDFPQPTETTAMTETFVLTMEYKGCKPCICTVPEVSSVFIFPPKPKDVLTITLTPKVTCVVVDISKDDPEVQFSWFVDDVEVHTAQTQPREEQFNSTFRSVSELPIMHQDWLNGKEFKCRVNSAAFPAPIEKTISKTKGRPKAPQVYTIPPPKEQMAKDKVSLTCMITDFFPEDITVEWQWNGQPAENYKNTQPIMDTDGSYFVYSKLNVQKSNWEAGNTFTCSVLHEGLHNHHTEKSLSHSPGK
[1]; fold higher EC50 value
  heparin binding EC50 relative to Construct CC: > 100 fold
[1]; pH 6 vs pH 7.5, plate assay
  heparin binding (qualitative): much weaker
[2]; cleaved by MMP-9
  CTLL-2 cell proliferation, MMP-9 treated construct: stimulates CTLL-2 cell proliferation in a dose dependent manner
[2]; uncleaved
  CTLL-2 cell proliferation, uncleaved construct: minimally stimulatory
[3]; 20 hour +MMP time point
  full-length cytokine prodrug remaining: only a faint band
[3]; +MMP-9 digestion, Western blot
  time at which cleavage product was detectable: 1 h
[4]; B16F10, C57BL/6, 20 mpk IV Q3D, D12
  Max TGI %: 49%
[4]; B16F10 model, 20 mg/kg IV Q3D
  signs of toxicity (body weight loss, liver and/or kidney enzymes, clinical observations): no signs of toxicity
[5]; 10 mpk IV Q3D for 21 D
  adverse effect / systemic toxicity: Essentially no systemic toxicity; also recorded: no adverse effect
  mouse body weight during treatment: substantially constant
[5]; IV Q3D, eight administrations, vs vehicle
  tumor growth (qualitative): virtually no tumor growth after initiation of treatment
[5]; MC-38, C57BL/6, 10 mpk IV Q3D, Day 21
  inhibition of tumor growth / Max TGI %: 92%
[5]; out of 8 cases, 10 mpk IV Q3D for 21 D
  complete tumor regressions ('cures'): 3
[6]; blot quantitation, collagen-agarose bound fraction
  Bound: 2306
[6]; bound fraction relative to Construct B (fold)
  Normalized: 1
[6]; fraction bound to collagen-agarose
  Bound (% input): 0.3%
